Assay: soluble on expression in E. coli; label from the status in PepcDB or PDB records
In the case of “VSIAQAQVVVSSKIDTEGGVLGNIILAVLNQNKIETTDRIQLGATPVVRKAITAGEIDIYPEYTGNAAFFFSKADDPLWKDAAKGYEEAKTLDYDANKIVWLAPSPANNTWAIALRKDVADKNNLKTLSDFGKYVAGGGTVVLAASSEFVNSAAALPAFQTTYGFTMKPDQLITLSGGDTAATIAAAANQTNNANAAMVYGTDGGIAPSGLVVLEDDKHVQPVYQPAPIIREEVLKKHPNIEELLKPVFEKLDLATLQDLNARVQVGGEQAKTVAMDFLTKNGFAK”, the “soluble on expression in E. coli” value is reported as “soluble”.
For “MKVFLYDTNLILASRVRSLLSSQGFEISDKEEACAGVVNLESPKGLEVVKELKEKGKKVVGYCGHKNVPLIQKAKELGVDEVIPNSQVVTSLGEILKKLCS”, the “soluble on expression in E. coli” value was “not soluble”.
For “MGSDKIHHHHHHMINCIIVEDAPLAVDKLKNFISKVPLLDLAGTFDNGLDAFDFLQSNTIDLLFLDIQMEQFTGLQLLQALHTRPHIIIVSAYGEYAVQGFEYDVTDYLLKPYSFERFLKAVNKVQTEMASNPPAQPLPKDYIFLKTEYRMVRINLCDILYIEGKGAYLHVITDTTRIMTLLSFKEIESLLPAKQFIRIHKSYLIAINKIDNIERNVVKIANMRIPIGKSYLKDFYLRLQ”, the “soluble on expression in E. coli” value was “not soluble”.
With “MGSDKIHHHHHHVAFSAKASLATAIGRSSYWFLHTFLKGGSSLPGQIANRIDPQVLRTLGQNYDVIVVTGTNGKTLTTSLIVKVLKKKYKEVLTNPTGSNMLQGITTAFLAQPKRGHGRGIAVLEVDEANVAPVAAQLKPKAFVLTNIFRDQMDRYGEFYTTYQKILDGVTRDPEAMVIANGDAPIFSSRKLPNPVTYYGFELTANGDHKAPPNTDGVLCPVCQHILHYHAQTYANLGNYFCPHCGFKRPALTHQITEVTQMTPQSSDFMIDDQPCHIDIGGMYNIYNALAAFAVGRAFGVTPTEISQAFAYDEKVFGRQEVIQLGKKKLTLILVKNPVGLNQVLSMIETAKQPFGFAMLLNANYADGIDTSWIWDGNFEELVASQKAASYLVGGERYKDIGLRLTVAGVPEKALVSKPALDDVISTLKRSQQDQLYVLATYTAMLQLRKKLSDGGYIKAGF” the “soluble on expression in E. coli” value was “not soluble”.
With “MVRGVFVGLFSKKQSVLVGVDISSTAVKLLQLSRSGNRFKVEHYAVEPLPLNAVAEKGIVEVEQVGEAIRRAVSRSGTKAKFAAAAVAGSAVITKLIPMPAGLDEQDLEAQIEIEATNYIPYPIEEVSLDFEVLGPVPNNTEMVQVLLAASRSENVELRQSALELGGLTAKVIDVEALAVENAFSLIAQELSVGSNALVALIDIGATMSTLNVLHSGRSLYAREQLFGGKQLTDEVMHRYGMTYEEAGQAKRQGGLPQSYEVEVLGPFKDSVIQQISRLLQFFYAGSEYNRVDCIVLAGGCAVIAGLPAMVEERLGVVTVVANPLAQMTLGAKVQAHTLAQDAPALMIATGLALRSFD” the “soluble on expression in E. coli” value was “not soluble”.
With “MSLNRVLDILKDRSLTYHQQIKDLAAYAESTIEVLNIDDETKKLIDEGCICTLFEGNAPFRPRYIIPDYSLLMEKGCEFLNLSVPEDIWEATNNLLIFYKHVPSITTFPVYLGNIDELLEPFIEDEREAKRAIKLFLKHIDRTLTDSFVHANIGPRETVAGRLILESMDELQCAVPNLSMKYDLENTPESFINLCAKVALSTAKPSFANHKMDVKSFGTDRYAIASCYNGFHIGGGGYTLVRIKLNEVAKKATSVEDFLENVLPYVSTKMIQYIDERIRFLVEETQFFTSNFLVKEGFIQKKLFTGMFGVVGLAEAVNTLLGAEKQSDRFGYSEKANKLGLRIIEKLNKIVSEHEAKHVNCFGGHYVLHAQVGIDLDQNVSPGCRIPVGEEPELFNHIMQSAPFHKYFYNGIGDIFVFEDTYNDHPEALVDIIKGAFNSGIRYMSVYGSGADVVRVTGYLAKRSEVEKLERGEAVLNNTDLFAMGAKNNCHAFERKIREGHHHHHH” the “soluble on expression in E. coli” value was “soluble”.
For “MKAASYGVPFQSHFGLISTIRGNDGLPRVVVFFQSHFGLISTVKIVEVLEKDEALSIPFWSDFNCHLQMDQRIRLAFFQSHFGLISTGTLQTSGTNANFLSIPFWSDFNLELLKRIKKTKMLFQSHFGLISTRNMVWGRSELQRAIFQSHFGLISTQSSQLTMPVKMQTFNPILV”, the “soluble on expression in E. coli” value was “not soluble”.
In the case of “MQIIRRLMFVVALICPLITQAEPQVAKLYQRELTRNSYAIGGLNAPVALFAAQVHQESQWNVTALSHVGAQGLAQFMPQTANWIATQYPELKTNQPFNPSWALRALVRYDYWLYQRIHAVTDCDRWAFALSAYNGGLGWVQRDKRKARIQGLDPMSYWHAVESVNSGRSRANFIENRGYPKRIIYRWQPLYLHWGNSVCLDD”, the “soluble on expression in E. coli” value is reported as “not soluble”.
For “MKFDRHRRLRSSATMRDMVRENHVRKEDLIYPIFVVEKDDVKKEIKSLPGVYQISLNLLESELKEAYDLGIRAIMFFGVPNSKDDIGTGAYIHDGVIQQATRIAKKMYDDLLIVADTCLCEYTDHGHCGVIDDHTHDVDNDKSLPLLVKTAISQVEAGADIIAPSNMMDGFVAEIRRGLDEAGYYNIPIMSYGVKYASSFFGPFRDAADSAPSFGDRKTYQMDPANRLEALRELESDLKEGCDMMIVKPALSYLDIVRDVKNHTNVPVVAYNVSGEYSMTKAAAQNGWIDEERVVMEQMVSMKRAGADMIITYFAKDICRYLDK”, the “soluble on expression in E. coli” value was “not soluble”.
In the case of “MGLELFLDLVSQPSRAVYIFAKKNGIPLELRTVDLVKGQHKSKEFLQINSLGKLPTLKDGDFILTESSAILIYLSCKYQTPDHWYPSDLQARARVHEYLGWHADCIRGTFGIPLWVQVLGPLIGVQVPEEKVERNRTAMDQALQWLEDKFLGDRPFLAGQQVTLADLMALEELMQPVALGYELFEGRPRLAAWRGRVEAFLGAELCQEAHSIILSILEQAAKKTLPTPSPEAYQAMLLRIARIP”, the “soluble on expression in E. coli” value is reported as “soluble”.
With “MAHHHHHHMIDLTGKTSLITGASSGIGSAIARLLHKLGSKVIISGSNEEKLKSLGNALKDNYTIEVCNLANKEECSNLISKTSNLDILVCNAGITSDTLAIRMKDQDFDKVIDINLKANFILNREAIKKMIQKRYGRIINISSIVGIAGNPGQANYCASKAGLIGMTKSLSYEVATRGITVNAVAPGFIKSDMTDKLNEKQREAIVQKIPLGTYGIPEDVAYAVAFLASNNASYITGQTLHVNGGMLMV” the “soluble on expression in E. coli” value was “soluble”.
For “MALHQRMFSGNKINIVRKNHPLFLGYLNEQLCAYASAQLSQKEGRLLYLGVDEKYRQQGIATALMAQVWNFLHDSCQDKITLVQSDKAQAAGKLYKKLGFKTIRRLLSAQLIVN”, the “soluble on expression in E. coli” value was “not soluble”.
With “SEDSGKTFSSEEEEANYWKDLAMTYKQRAENTQEELREFQEGSREYEAELETQLQQIETRNRDLLSENNRLRMELETIKEKFEVQHSEGYRQISALEDDLAQTKAIKDQLQKYIRELEQANDDLERAKRATIMSLEDFEQRLNQAIERNAFLESELDEKENLLESVQRLKDEARDLRQELAVQQKQEKPRTPMPSSVEAERTDTAVQATGSVPSTPIAHRGPSSSLNTPGSFRRGLDDSTGGTPLTPAARISALNIVGDLLRKVGALESKLASCRNLVYDQSPNRTGGPASGRSSKNRDGGERRPSSTSVPLGDKGLDTSCRWLSKSTTRSSSSC” the “soluble on expression in E. coli” value was “soluble”.
With “MSDNDTIVAQATPPGRGGVGILRISGFKAREVAETVLGKLPKPRYADYLPFKDADGSVLDQGIALWFPGPNSFTGEDVLELQGHGGPVILDLLLKRILTIPGLRIARPGEFSERAFLNDKLDLAQAEAIADLIDASSEQAARSALNSLQGAFSARVNHLVEALTHLRIYVEAAIDFPDEEIDFLSDGKIEAQLNDVIADLDAVRAEARQGSLLREGMKVVIAGRPNAGKSSLLNALAGREAAIVTDIAGTTRDVLREHIHIDGMPLHIIDTAGLREASDEVERIGIERAWQEIEQADRVLFMVDGTTTDAVDPAEIWPEFIARLPAKLPITVVRNKADITGETLGMSEVNGHALIRLSARTGEGVDVLRNHLKQSMGFDTNMEGGFLARRRHLQALEQAAEHLQQGKAQLLGAWAGELLAEELRLAQQNLSEITGEFTSDDLLGRIFSSFCIGK” the “soluble on expression in E. coli” value was “soluble”.
For “MSKLSIRNLTKIFGPHPEKALGLLEQGLGKEEIHRRTSHAVGVDRASFDVEEGEIVVVMGLSGSGKSTLVRCLNRLIEPTAGTVTVDGRDVTSMPVDELRRLRQRSFGMVFQNFALFPHRTVLQNAAFGLEAMGVPRAERERQAMVSLERVGLAEWAASRPAQLSGGMQQRVGLARALSLDPDILLMDEAFSALDPLIRRDMQDELLRLQDDLQKTIVFISHDLDEALKLGDRIVLMRDGAVVQIGTPEDILTNPADDYVARFVGEADVTKVLTAGSVMKRSEAVAVLGIDGPRTALRKMRRNAIATLFVLDERHRLVGLITADDAARLAAEGVRELGSIVRRDIATVPPEAPATELISLMADLPHPLAVVDERGRLAGVIVRGLLLGALAERGGVALEHHHHHH”, the “soluble on expression in E. coli” value was “not soluble”.
For “MSRQCTHYGRWPQHGFTSLKKLRPQSVTSRIQPGSDVIVCAEMDEHWGYVGAKSRQRWLFYAYDRIRRTVVAHVFGERTLATLERLLSLLSAFEVVVWMTDGWPLYESRLKGKLHVISKRYTQRIERHNLNLRQHLARLVRKSLSFSKSVELHDKVIGHYLNIKHYQLEHHHHHH”, the “soluble on expression in E. coli” value was “not soluble”.
With “GSCEKENIGIEVTPVNAKFIITPVVIDATTGTDVTQSAEISFSKGNGTYEGTPELASESININAKYKGMTGSASVTIPALKAGQFGAKEVTIILSENFFAQEESSNSQIETTKHSGFKNNTSDYWYYITVTYTKKEGSEVIKNDYEGDDSEIKNIIDAYNKGVREDKVTLNDVQVLAHSRFSVFVDYMKTTSVYQIIEKSPKRDGNPVASFTVDSYNTIVSPKNEQIPGHGHAPSHGHGHGHGDDSNAGGGIIIAD” the “soluble on expression in E. coli” value was “soluble”.
In the case of “MLCIDSSRDLTYGVVMTFKVMEFQKGRLQNLYWKRDVCASCKGNQNFVCLKKQVCAIRTPSCKGRGGSVGCSLGIQLAFSGTDKHLAVLNSWYEVDNLKQYSLYGLYSNLKSSLTNQLNNFF”, the “soluble on expression in E. coli” value is reported as “soluble”.
In the case of “MHNQAPIQRRKSTRIYVGNVPIGDGAPIAVQSMTNTRTTDVEATVNQIKALERVGADIVRVSVPTMDAAEAFKLIKQRVNVPLVADIHFDYRIALKVAEYGVDCLRINPGNIGNEERIRMVVDCARDKNIPIRIGVNAGSLEKDLQEKYGEPTPQALLESAMRHVDHLDRLNFDQFKVSVKASDVFLAVESYRLLAKQIDQPLHLGITEAGGARSGAVKSAIGLGLLLSEGIGDTLRVSLAADPVEEIKVGFDILKSLRIRSRGINFIACPTCSRQEFDVIGTVNALEQRLEDIITPMDVSIIGCVVNGPGEALVSTLGVTGGNKKSGLYEDGVRKDRLDNNDMIDQLEARIRAKASQLDEARRIDVQQVGKIITLEHHHHHH”, the “soluble on expression in E. coli” value is reported as “not soluble”.
In the case of “MAHHHHHHMATVYTSVPGKDFAKGVTLDEANRIVRVDAGLPLLSALQVGMIVRSIGGVPVGDGRCEQARHHSNRSQVLVVLGAPPKDEFDLCSDDDDAANLKPPSTLPPLPPEFNNSVAQNSSGVVYEATVKCGEGGCVIIMCEGANPALAITLAAEKAKAEVMYIDTVARMKTRQTLENAGEVLKKSLEKGLWIYVEQATKSITLLRQISDCIMEVRAAGKMHAQSRVLLMCEPHPHFPEALMRGSVTLRSRLQNNNMAEVDIREDLSESAHRKQAIHGDDVASSETAAKPEVTKTRKKVRISNQVNIVHLEKSTFMEMSASAQPPLESGTSHDGISRVAKYSFGSNENLISLSYVRDHRFAIGTNSGYVVLIDRNGLPLIQFRPHKACIWDVSFSSQFDFSTACEDGTSVIYKYSLANQELTTVSVASFQNDVFAVTYANPNDVNSGVLSGGLSATVCVLHSDRQNSSFIACRTSIQAMCATQMNQVIVGGGTGACTLIDTNHCVVTDITHAHNKKVPAVGTHGNVAVTGGFDCVLRLWDVRNGFHLTSQRQLNEVITAVAMNERYISACSGSSLYVWDPRKMDRTLAVKANAWKDLTRGLVLDGSTIVTASVDGVARIWEVS”, the “soluble on expression in E. coli” value is reported as “not soluble”.

Source: the DeepSol protein solubility set
